Results published in article PMC9200632, “Development of spirulina for the manufacture and oral delivery of protein therapeutics” (Nature Biotechnology, 2022).

T1: MBP–FlaA (C. jejuni flagellin FlaA, amino acids 177–482) (Campylobacter jejuni, flagellin A …, biotinylated (EZ-Link NGS-PEG4-Biotin kit) in the BLI)
T1 construct: The biotinylated form was used for BLI; The ELISA methods name the coating protein only as recombinant FlaA; also called recombinant FlaA; recombinant C. jejuni flagellin; source: E. coli BL-21(DE3), purified (Amylose Resin); not shown: MBP, N-terminal, kept
T1 chain: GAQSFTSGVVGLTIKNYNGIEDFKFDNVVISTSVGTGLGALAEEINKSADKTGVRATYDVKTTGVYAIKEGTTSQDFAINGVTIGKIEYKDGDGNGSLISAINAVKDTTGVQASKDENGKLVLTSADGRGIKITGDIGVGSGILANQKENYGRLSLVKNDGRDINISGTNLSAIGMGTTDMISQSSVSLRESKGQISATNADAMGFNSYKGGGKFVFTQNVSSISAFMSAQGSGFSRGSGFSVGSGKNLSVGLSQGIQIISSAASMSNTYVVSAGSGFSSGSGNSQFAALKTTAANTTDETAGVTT


How the values were obtained:
[1] = target: T2, RBD antigen (SARS-CoV-2 receptor-binding domain) (SARS-CoV-2, variant  …, UniProt P0DTC2); assay: ELISA
T2 construct: source: provided by R. Strong (Fred Hutchinson Cancer Institute)

[2] = target: T1, MBP–FlaA (C. jejuni flagellin FlaA, …); assay: BLI; Octet Red96e; biotinylated MBP–FlaA loaded at 100 nM on streptavidin biosensors; purified aa682 from 1 μM to 10 nM in PBS with 1% BSA and 0.05% Tween-20; association 20 s, dissociation 140 s; global fit, 1:1 model; conditions: both partners purified

Binder	EC50 ([1]; both partners purified) [µM]	EC50 ([1]; one partner purified) [µM]	further results
PP622, monomeric RBD-binding VHH (VHH-72), E. coli-expressed and purified (VHH, also called monomeric VHH; source: E. coli, purified (IMAC)) VHH: QVQLQESGGGLVQAGGSLRLSCAASGRTFSEYAMGWFRQAPGKEREFVATISWSGGSTYYTRSVKGRFTISRDNAKNTVYLQMNSLKPDDTAVYYCAAAGLGTVVSEWDYDYDYWGQGTQVTVSS	0.0183		
dimeric RBD-binding VHH (VHH-72 on the 5HVZ scaffold) in extract of spirulina strain SP1477 (VHH, as the dimerization motif of m5, named only by its PDB entry 5HVZ; also called dimeric VHH, extracted form; source: spirulina strain SP1477, in extract) VHH: QVQLQESGGGLVQAGGSLRLSCAASGRTFSEYAMGWFRQAPGKEREFVATISWSGGSTYYTRSVKGRFTISRDNAKNTVYLQMNSLKPDDTAVYYCAAAGLGTVVSEWDYDYDYWGQGTQVTVSS		0.00129	
PP661, dimeric RBD-binding VHH (VHH-72 on the 5HVZ scaffold), E. coli-expressed and purified (VHH, also called dimeric VHH; source: E. coli, purified (IMAC)) VHH: QVQLQESGGGLVQAGGSLRLSCAASGRTFSEYAMGWFRQAPGKEREFVATISWSGGSTYYTRSVKGRFTISRDNAKNTVYLQMNSLKPDDTAVYYCAAAGLGTVVSEWDYDYDYWGQGTQVTVSS	0.00032		
monomeric RBD-binding VHH (VHH-72) in extract of spirulina strain SP1464 (VHH, also called monomeric VHH, extract; source: spirulina strain SP1464, in extract) VHH: QVQLQESGGGLVQAGGSLRLSCAASGRTFSEYAMGWFRQAPGKEREFVATISWSGGSTYYTRSVKGRFTISRDNAKNTVYLQMNSLKPDDTAVYYCAAAGLGTVVSEWDYDYDYWGQGTQVTVSS		0.0523	
aa682 (VHH, N-terminal methionine removed (intact mass); Monovalent VHH-MBP fusion, predicted MW 54.8 kDa) VHH: QVQLVESGGGLVQAGGSLRVSCTASVSTFSINALGWYRQAPGKARELVAAIGSDGTVYYTDSVKGRFTISRDNAKNTVSLQMSSLKPEDTAVYYCNAAGKRIGSDGSIWFAVASFGSWGQGTQVTVSS			Kd [2]: 0.053 µM
